Source: patent publication US20260193366A1 (APOGEE THERAPEUTICS, published 2026)

B1: Construct 26 (mAb434) (antibody, IgG4, V domains shown)
VH: EVQLVESGGGLEQPGGSLRLSCAGSGFTFRDFAMTWVRQAPGKGLEWVSSISGGGGSTYYADSVKGRFTISRDNSKNTLYLQMNSLRAEDTAVYYCAKDRLSIAVRPRYYGLDVWGQGTTVTVSS
VL: DIVMTQSPLSLPVTPGEPASISCTASQSLLYSIGYNYVDWYLQKSGQSPQLLIYLGNKRASGVPDRFSGSGSGTDFTLKISRVEAEDVGFYYCMQSLTSPYTFGQGTKLEIK
notes: VH/VL only
B2: Construct 34 (mAb459) (antibody, IgG4, V domains shown)
VH: EVQLVESGGGLEQPGGSLRLSCAGSGFTFRDFAMTWVRQAPGKGLEWVSSISGSGDNIYYADSVKGRFTISRDNSKNTLYLQMNSLRAEDTAVYYCAKDRLSKTIRPRYYGLDVWGQGTTVTVSS
VL: DIVMTQSPLSLPVTPGEPASISCRSSQGLLYSIGYNYVDWYLQKSGQSPQLLIYLGNKRASGVPDRFSGSGSGTDFTLKISRVEAEDVGFYYCMQALDTPYTFGQGTKLEIK
notes: VH/VL only
B3: Construct 33 (mAb450) (antibody, IgG4, V domains shown)
VH: EVQLVESGGGLEQPGGSLRLSCAGSGFTFRDFAMTWVRQAPGKGLEWVSSISGSGGNIYYADSVKGRFTISRDNSKNTLYLQMNSLRAEDTAVYYCAKDRVSITIRPRYYGLDVWGQGTTVTVSS
VL: DIVMTQSPLSLPVTPGEPASISCTASQSLLYSIGYNYVDWYLQKSGQSPQLLIYLGSKRASGVPDRFSGSGSGTDFTLKISRVEAEDVGFYYCMQALGSPYTFGQGTKLEIK
notes: VH/VL only
B4: Construct 35 (mAb467) (antibody, IgG4, V domains shown)
VH: EVQLVESGGGLEQPGGSLRLSCAGSGFTFRTYAMTWVRQAPGKGLEWVSSISGSGGNTYYADSVKGRFTISRDNSKNTLYLQMNSLRAEDTAVYYCAKDRVSITIRPRYYGLDVWGQGTTVTVSS
VL: DIVMTQSPLSLPVTPGEPASISCTSSQSLLYSIGKNYVDWYLQKSGQSPQLLIYEGNNRATGVPDRFSGSGSGTDFTLKISRVEAEDVGFYYCMQSLTSPYTFGQGTKLEIK
notes: VH/VL only
B5: Construct 27 (mAb435) (antibody, IgG4, V domains shown)
VH: EVQLVESGGGLEQPGGSLRLSCAGSGFTFTDFAMTWVRQAPGKGLEWVSSISGSGGNKYYADSVKGRFTISRDNSKNTLYLQMNSLRAEDTAVYYCAKDRLSVTVRPRYYGLDVWGQGTTVTVSS
VL: DIVMTQSPLSLPVTPGEPASISCTASQSLLYSIGYNYVDWYLQKSGQSPQLLIYLGNKRASGVPDRFSGSGSGTDFTLKISRVEAEDVGFYYCMQSLTSPYTFGQGTKLEIK
notes: VH/VL only
B6: Construct 36 (mAb469) (antibody, IgG4, V domains shown)
VH: EVQLVESGGGLEQPGGSLRLSCAGSGFTFRDFAMTWVRQAPGKGLEWVSSISGSGGNIYYADSVKGRFTISRDNSKNTLYLQMNSLRAEDTAVYYCAKDRLSKTIRPRYYGLDVWGQGTTVTVSS
VL: DIVMTQSPLSLPVTPGEPASISCRSSQSLLYSIGKNYVDWYLQKSGQSPQLLIYEGNNRASGVPDRFSGSGSGTDFTLKISRVEAEDVGFYYCMQSLTSPYTFGQGTKLEIK
notes: VH/VL only
B7: Construct 28 (mAb436) (antibody, IgG4, V domains shown)
VH: EVQLVESGGGLEQPGGSLRLSCAGSGFTFRDFAMTWVRQAPGKGLEWVSSVSGSGGNTYYADSVKGRFTISRDNSKNTLYLQMNSLRAEDTAVYYCAKDRLSVTVRPRYYGLDVWGQGTTVTVSS
VL: DIVMTQSPLSLPVTPGEPASISCTSSQSLLYSIGYNYVDWYLQKSGQSPQLLIYLGNKRASGVPDRFSGSGSGTDFTLKISRVEAEDVGFYYCMQSLQTPYTFGQGTKLEIK
notes: VH/VL only

What was measured:
[1] = molecular target: T1, hIL-4Rα on cells (human, UniProt P24394 26-825); experiment: FACS on HEK293 cells, competitor biotin-hIL-13;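 note: stably transduced cells co-expressing both receptor chains, stained cold, with cell-bound signal read as mean fluorescence intensity by flow cytometry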
T1 sequence: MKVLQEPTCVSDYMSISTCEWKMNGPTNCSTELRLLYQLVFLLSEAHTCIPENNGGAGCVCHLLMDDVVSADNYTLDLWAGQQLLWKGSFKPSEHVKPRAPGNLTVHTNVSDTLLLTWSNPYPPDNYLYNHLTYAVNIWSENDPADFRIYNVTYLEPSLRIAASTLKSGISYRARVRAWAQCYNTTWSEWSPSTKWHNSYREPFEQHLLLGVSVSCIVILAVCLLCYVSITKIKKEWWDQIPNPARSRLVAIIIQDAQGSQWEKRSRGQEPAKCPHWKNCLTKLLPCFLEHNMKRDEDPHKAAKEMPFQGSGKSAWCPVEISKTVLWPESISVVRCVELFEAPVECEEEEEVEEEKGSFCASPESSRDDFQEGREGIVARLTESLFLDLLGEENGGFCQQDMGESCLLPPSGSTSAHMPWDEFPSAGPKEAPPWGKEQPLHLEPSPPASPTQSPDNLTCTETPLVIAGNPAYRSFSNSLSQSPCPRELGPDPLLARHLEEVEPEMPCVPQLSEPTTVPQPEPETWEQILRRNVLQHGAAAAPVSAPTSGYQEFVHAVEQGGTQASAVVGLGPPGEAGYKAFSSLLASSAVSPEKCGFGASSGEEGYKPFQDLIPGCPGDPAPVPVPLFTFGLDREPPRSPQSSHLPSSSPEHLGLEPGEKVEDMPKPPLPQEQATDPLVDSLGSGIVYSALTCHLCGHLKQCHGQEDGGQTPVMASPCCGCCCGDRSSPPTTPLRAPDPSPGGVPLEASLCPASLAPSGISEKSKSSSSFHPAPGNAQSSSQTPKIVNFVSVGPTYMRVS

[2] = molecular target: T1, hIL-4Rα on cells; experiment: FACS on HEK293 cells, competitor biotin-hIL-4;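 note: HEK293 cells stably co-expressing hIL-13Rα and hIL-4Rα, stained for 1 h at 4 °C, read-out as mean fluorescence intensity by flow cytometry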
[3] = molecular target: T2, cynomolgus monkey IL-4Rα (cynomolgus monkey, UniProt P24394 26-231 (human entry), limits assumed); experiment: SPR, Carterra LSA;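 note: antibodies captured on an anti-human Fc sensor chip, antigen injected at several concentrations, association and dissociation rates fitted with a 1:1 Langmuir model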
T2 construct: also called Cyno IL-4Rα; cyIL-4Rα
T2 chain: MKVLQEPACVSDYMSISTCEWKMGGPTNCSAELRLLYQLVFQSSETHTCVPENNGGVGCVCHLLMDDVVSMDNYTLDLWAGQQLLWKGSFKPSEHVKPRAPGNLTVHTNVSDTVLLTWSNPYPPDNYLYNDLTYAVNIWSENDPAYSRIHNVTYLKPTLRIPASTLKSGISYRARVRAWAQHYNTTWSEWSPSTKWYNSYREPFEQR
Description: (§1) Binding affinity (KD) of antibodies to human and cynomolgus monkey IL-4Rα was determined through surface plasmon resonance (SPR) using a Carterra LSA. Briefly, an HC30M sensor chip that was previously functionalized with a polyclonal mixture of goat anti-human Fc antibody and used to capture purified antibodies at a level between 100-1000 RLU. […] Regeneration of the chip between different concentrations of antigen was performed with 200 mM phosphoric acid and antibody was captured again as previously described. Association and dissociation rate constants were subsequently determined through fitting to a 1:1 Langmuir binding model using the Kinetics Software from Carterra from which a KD value was derived.

[4] = molecular target: T3, human IL-4Rα (human, UniProt P24394 26-232); experiment: SPR, Carterra LSA;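 note: antibodies captured on an anti-human Fc sensor chip, antigen injected at several concentrations, association and dissociation rates fitted with a 1:1 Langmuir model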
T3 construct: also called Hu IL-4Rα; hIL-4Rα
T3 sequence: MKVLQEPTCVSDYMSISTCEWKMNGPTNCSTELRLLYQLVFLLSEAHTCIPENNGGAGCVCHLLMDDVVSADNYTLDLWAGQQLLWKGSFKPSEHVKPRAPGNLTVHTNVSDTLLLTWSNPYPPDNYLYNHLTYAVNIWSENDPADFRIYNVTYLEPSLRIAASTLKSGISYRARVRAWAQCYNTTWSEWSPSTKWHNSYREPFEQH
Description: as §1

[5] = molecular target: T1, hIL-4Rα on cells; experiment: cell-based or functional assay
[6] = molecular target: T1, hIL-4Rα on cells; experiment: cell-based or functional assay; remark: listed apart in the source
[7] = molecular target: T1, hIL-4Rα on cells; experiment: cell-based or functional assay; remark: listed apart in the source

| Relative Blockade of IL-13 Binding IC50 [1] | Relative Blockade of IL-4 Binding IC50 [2] | KD Relative to Dupilumab [3] | Kd [3] | KD Relative to Dupilumab [4] | Kd [4] | Relative Inhibition of IL-4 induced TARC IC50 [5] | Relative Inhibition of IL-13 induced TARC IC50 [5] | Relative Inhibition of IL-4 induced pSTAT6 IC50 [6] | Relative Inhibition of IL-13 induced pSTAT6 IC50 [6] | Relative Inhibition of IL-4 induced TF-1 Proliferation IC50 [7] | Relative Inhibition of IL-13 induced TF-1 Proliferation IC50 [7] | Binder |
| --- | --- | --- | --- | --- | --- | --- | --- | --- | --- | --- | --- | --- |
| 0.486 relative to dupilumab | 0.763 relative to dupilumab | 0.26 | 166 nM | 0.78 | 0.00883 nM | 0.763 relative to dupilumab | 1.73 relative to dupilumab | 0.661 relative to dupilumab | 0.627 relative to dupilumab | 0.7 relative to dupilumab | 0.83 relative to dupilumab | B1 |
| 1.21 relative to dupilumab | 1.23 relative to dupilumab | 0.53 | 334 nM | 1.01 | 0.0114 nM | 4.32 relative to dupilumab | 1.35 relative to dupilumab | 0.464 relative to dupilumab | 2.42 relative to dupilumab | 1.46 relative to dupilumab | 1.55 relative to dupilumab | B2 |
| 1.21 relative to dupilumab | 1.01 relative to dupilumab | 0.05 | 33.9 nM | 0.78 | 0.00875 nM | 3.2 relative to dupilumab | 1.07 relative to dupilumab | 0.888 relative to dupilumab | 1.59 relative to dupilumab | 1.05 relative to dupilumab | 0.926 relative to dupilumab | B3 |
| 1.25 relative to dupilumab | 1.29 relative to dupilumab | 0.29 | 180 nM | 0.99 | 0.0112 nM | 1.92 relative to dupilumab | 1.65 relative to dupilumab | 0.766 relative to dupilumab | 2.71 relative to dupilumab | 0.948 relative to dupilumab | 1.11 relative to dupilumab | B4 |
| 0.592 relative to dupilumab | 0.99 relative to dupilumab | 0.28 | 176 nM | 1.12 | 0.0126 nM | 0.547 relative to dupilumab | 1.83 relative to dupilumab | 0.676 relative to dupilumab | 0.38 relative to dupilumab | 0.962 relative to dupilumab | 0.773 relative to dupilumab | B5 |
| 1.22 relative to dupilumab | 1.18 relative to dupilumab | 0.61 | 385 nM | 0.99 | 0.0112 nM | 1.78 relative to dupilumab | 0.999 relative to dupilumab | 0.957 relative to dupilumab | 2.16 relative to dupilumab | 1.05 relative to dupilumab | 1.25 relative to dupilumab | B6 |
| 0.611 relative to dupilumab | 0.849 relative to dupilumab | 0.09 | 54.7 nM | 0.69 | 0.00777 nM | 0.58 relative to dupilumab | 1.81 relative to dupilumab | 0.999 relative to dupilumab | 0.497 relative to dupilumab | 1.19 relative to dupilumab | 0.634 relative to dupilumab | B7 |
